Test results taken from publication doi:10.1101/2024.10.21.619360.

Legend:
[1] = molecular target: bovine complement factor I; test: BLI; conditions: 1600 nM PmSLP-1 mutant; biotinylated bovine FI on streptavidin sensors; 3 independent replicates; read off a plot
[2] = molecular target: bovine complement factor I; test: biolayer interferometry; conditions: n=3; parent: 27 ± 6
[3] = molecular target: bovine complement factor I (bovine (B. taurus)); test: cryo-EM structure; PmSLP-1 and FI mixed 5:1, complex isolated on Superdex Increase 200 in PBS pH 7.4, 0.25 mg/mL on gold grids, 40° tilt; dimer of the complex, protomer refined to 3.5 Å
[4] = molecular target: bovine complement factor I (bovine (B. taurus)); test: BLI; biotinylated bovine FI (150 nM) on streptavidin biosensors, PmSLP-1 as analyte at 0-1600 nM, Octet RED96, 30°C, PBS pH 7.4 with 0.01% Tween 20; steady-state analysis, one-site fit

Row | Substance | response [1] [AU] | Kd [2] [nM] | stoichiometry N [3] | Kd [4] [nM]
1 | PmSLP-1^15 (PmSLP-1^15-318), surface lipoprotein of Pasteurella multocida strain 36950 E240A | -0.0015 |  |  | 
2 | PmSLP-1^15 (PmSLP-1^15-318), surface lipoprotein of Pasteurella multocida strain 36950 D210A | 0.14 | 272 |  | 
3 | PmSLP-1^15 (PmSLP-1^15-318), surface lipoprotein of Pasteurella multocida strain 36950 D124R | 0.24 | 53 |  | 
4 | bovine complement factor I (enzyme) |  |  | 2 | 
5 | PmSLP-1^15 (PmSLP-1^15-318), surface lipoprotein of Pasteurella multocida strain 36950 D121A | 0.19 | 117 |  | 
6 | PmSLP-1^15 (PmSLP-1^15-318), surface lipoprotein of Pasteurella multocida strain 36950 K236E | 0.24 | 33 |  | 
7 | PmSLP-1^15 (PmSLP-1^15-318), surface lipoprotein of Pasteurella multocida strain 36950 (domain or fragment) |  |  |  | 27
8 | PmSLP-1^15 (PmSLP-1^15-318), surface lipoprotein of Pasteurella multocida strain 36950 I133D | 0.24 | 43 |  | 
9 | PmSLP-1^95 (PmSLP-1^95-318 SERp) (domain or fragment) |  |  |  | 39
10 | PmSLP-1^15 (PmSLP-1^15-318), surface lipoprotein of Pasteurella multocida strain 36950 R167A | 0.18 | 107 |  | 
11 | PmSLP-1^15 (PmSLP-1^15-318), surface lipoprotein of Pasteurella multocida strain 36950 L127D | 0.23 | 85 |  | 
12 | PmSLP-1^15 (PmSLP-1^15-318), surface lipoprotein of Pasteurella multocida strain 36950 E132R | 0.22 | 28 |  | 
